Assay results published in patent publication US5750106.

Target: gH glycoprotein of CMV (82,000 dalton component) (human cytomegalovirus (CMV), strain not stated)

B1: human monoclonal antibody SDZ MSL 109 (antibody, V domains shown)
VH: EEQVLESGGGLVKPGGSLRLSCAASGFTFSPYSVFWVRQAPGKGLEWVSSINSDSTYKYYADSVKGRFTISRDNAENSIFLQMNSLRAEDTAVYYCARDRSYYAFSSGSLSDYYYGLDVWGQG
VL: DIVMTQSPLSLSVTPGEPASISCRSSQSLLHTNGYNYLDWYVQKPGQSPQLLIYLASNRASGVPDRFSGSGSGTDFTLKISRVETEDVGVYYCMQALQIPRTFGQGTKVEIKR
  neutralizing concentration (micro-neutralization assay): 100 ng/mL
